From PMC5385526 (Scientific Reports, 2017) come the findings set out here.

The stoichiometry N is the number of molecules, sites or subunits per partner or assembly.

For data set [1], the target named is porcine aminopeptidase N (pAPN) ectodomain, soluble (pig) (UniProt P15145). Briefly: crystal structure; HA-tagged APN ectodomains; pAPNeh: 5% PEG-1000, 10% PEG-8000 (pH ~6); native pAPN: 20% PEG-3350, 100 mM sodium acetate pH 5.6; hAPN: 20% PEG-6000, 50 mM imidazole-HCl pH 8.0; dimer in the crystals.
Data set [2] deals with seleno-Met, endoglycosidase H-treated porcine APN ectodomain (pig) (UniProt P15145). The data set is described as above.
In data set [3] the target is TGEV RBD-Fc fusion protein (bivalent RBD-Fc variant). Briefly: flow cytometry on cells. The note with it: 293T cell surface, normalized to cell surface expression, read off a plot. Background: In flow cytometry, cells or beads pass a laser one at a time.
Data set [4] deals with the molecule itself. Briefly: crystal structure; HA-tagged APN ectodomains; pAPNeh: 5% PEG-1000, 10% PEG-8000 (pH ~6); native pAPN: 20% PEG-3350, 100 mM sodium acetate pH 5.6; hAPN: 20% PEG-6000, 50 mM imidazole-HCl pH 8.0; dimer in the crystals.
The mark [5] stands for this setting: + DTT (5 mM; 30 min, 37 °C) before assay, parent: est. 110.

“porcine aminopeptidase N (pAPN) ectodomain, soluble (from UniProt P15145 36-963) (domain or fragment)” had a stoichiometry N in data set [1] of 2.
Take “seleno-Met, endoglycosidase H-treated porcine APN ectodomain (from UniProt P15145 36-963) (domain or fragment)”: the stoichiometry N in data set [2] came to 2.
For the molecule “wild type porcine APN on the surface of transiently transfected 293T cells (from UniProt P15145) S464C; S892C”, the percent of parent came to 120% in data set [3] (setting [5]) and 45% in data set [3] (- DTT, parent: est. 100).
On to “wild type porcine APN on the surface of transiently transfected 293T cells (from UniProt P15145) S464C; S892C; S929C”, for which the percent of parent in data set [3] (setting [5]) was found to be 76%; in data set [3] (- DTT, parent: est. 100), 37%.
The like results for “wild type porcine APN on the surface of transiently transfected 293T cells (from UniProt P15145) S464C; S929C” were, in that order, 110% and 19%.

B1: human aminopeptidase N (hAPN) ectodomain, soluble (domain or fragment, UniProt P15144 36-967, looked up)
chain: EKNKNANSSPVASTTPSASATTNPASATTLDQSKAWNRYRLPNTLKPDSYRVTLRPYLTPNDRGLYVFKGSSTVRFTCKEATDVIIIHSKKLNYTLSQGHRVVLRGVGGSQPPDIDKTELVEPTEYLVVHLKGSLVKDSQYEMDSEFEGELADDLAGFYRSEYMEGNVRKVVATTQMQAADARKSFPCFDEPAMKAEFNITLIHPKDLTALSNMLPKGPSTPLPEDPNWNVTEFHTTPKMSTYLLAFIVSEFDYVEKQASNGVLIRIWARPSAIAAGHGDYALNVTGPILNFFAGHYDTPYPLPKSDQIGLPDFNAGAMENWGLVTYRENSLLFDPLSSSSSNKERVVTVIAHELAHQWFGNLVTIEWWNDLWLNEGFASYVEYLGADYAEPTWNLKDLMVLNDVYRVMAVDALASSHPLSTPASEINTPAQISELFDAISYSKGASVLRMLSSFLSEDVFKQGLASYLHTFAYQNTIYLNLWDHLQEAVNNRSIQLPTTVRDIMNRWTLQMGFPVITVDTSTGTLSQEHFLLDPDSNVTRPSEFNYVWIVPITSIRDGRQQQDYWLIDVRAQNDLFSTSGNEWVLLNLNVTGYYRVNYDEENWRKIQTQLQRDHSAIPVINRAQIINDAFNLASAHKVPVTLALNNTLFLIEERQYMPWEAALSSLSYFKLMFDRSEVYGPMKNYLKKQVTPLFIHFRNNTNNWREIPENLMDQYSEVNAISTACSNGVPECEEMVSGLFKQWMENPNNNPIHPNLRSTVYCNAIAQGGEEEWDFAWEQFRNATLVNEADKLRAALACSKELWILNRYLSYTLNPDLIRKQDATSTIISITNNVIGQGLVWDFVQSNWKKLFNDYGGGSFSFSNLIQAVTRRFSTEYELQQLEQFKKDNEETGFGSGTRALEQALEKTKANIKWVKENKEVVLQWFTENSK
On to B1, for which the “stoichiometry N” value in data set [4] came out at 2.
